From PMC5450713 (Toxins, 2017)

B1: recombinant His-tagged Vip3Ag4 protein (natural protein, Bacillus thuringiensis, UniProt I6LPV9 1-787, looked up)
chain: MNKNNTKLNARALPSFIDYFNGIYGFATGIKDIMNMIFKTDTGGNLTLDEILKNQQLLNEISGKLDGVNGSLNDLIAQGNLNTELSKEILKIANEQNQVLNDVNNKLNAINTMLHIYLPKITSMLNDVMKQNYALSLQIEYLSKQLQEISDKLDVINVNVLINSTLTEITPAYQRMKYVNEKFEDLTFATETTLKVKKNSSPADILDELTELTELAKSVTKNDVDGFEFYLNTFHDVMVGNNLFGRSALKTASELIAKENVKTSGSEVGNVYNFLIVLTALQAKAFLTLTTCRKLLGLADIDYTFIMNEHLDKEKEEFRVNILPTLSNTFSNPNYAKAKGSNEDAKIIVEAKPGYALVGFEMSNDSITVLKAYQAKLKQDYQVDKDSLSEIVYGDMDKLLCPDQSEQIYYTNNIAFPNEYVITKITFTKKMNSLRYEATANFYDSSTGDIDLNKTKVESSEAEYSTLSASTDGVYMPLGIISETFLTPINGFGIVVDENSKLVNLTCKSYLREVLLATDLSNKETKLIVPPIGFISNIVENGNLEGENLEPWKANNKNAYVDHTGGVNGTKALYVHKDGEFSQFIGDKLKSKTEYVIQYIVKGKASILLKDEKNGDCIYEDTNNGLEDFQTITKSFITGTDSSGVHLIFNSQNGDEAFGENFTISEIRLSEDLLSPELINSDAWVGSQGTWISGNSLTINSNVNGTFRQNLSLESYSTYSMNFNVNGFAKVTVRNSREVLFEKNYPQLSPKDISEKFTTAANNTGLYVELSRFTSGGAINFRNFSIK
notes: Expected size with His-tag 91.38 kDa; also called Vip3Ag4 protoxin; unprocessed Vip3Ag4; source: E. coli BL21(DE3), pET28b, purified (Protino Ni-TED column, Sephacryl S-300 size exclusion); not shown: His tag, N-terminal, kept

Columns and labels:
[1] = target: trypsin-treated Vip3Ag4 (complex of the ~65 kDa and ~21 kDa products of proteolysis) (Bacillus thuringiensis) (UniProt I6LPV9); test: SEC; SEC of trypsin-treated recombinant Vip3Ag4 compared with unprocessed material; fractions of the major peak analysed by SDS PAGE
[2] = target: the molecule itself; test: SEC-MALS; Superdex 200 10/300 Increase, 100 uL at 1.0 mg/mL, 20 mM TrisHCl, 300 mM NaCl, pH 8.0, 0.7 mL/min
[3] = target: the molecule itself; test: SEC; Hi-Prep 16/60 Sephacryl S-300, 20 mM TrisHCl pH 8.0, 300 mM NaCl, 0.5 mL/min, calibrated with gel filtration standards; initial Vip3Ag4 preparation after nickel affinity

Molecule | stoichiometry N [1] | stoichiometry N [2] | stoichiometry N [3]
trypsin-treated Vip3Ag4 (complex of the ~65 kDa and ~21 kDa products of proteolysis) (from UniProt I6LPV9 1-182; I6LPV9 199-787) | 4 | – | –
B1 | – | 4 | ~4
